Results on one substance are retold here after patent US20100267005A1.

In the test the target is H6GY-titin I28 protein. Briefly: sedimentation equilibrium, 3 loading concentrations, ten fold molar excess of Ni2+; Ni(II)-mediated self-association (monomer-dimer).

H6GY-titin I28 protein: the Kd came out at 200 µM.
